In PMC6493668 (2019):
Changes are numbered by the printed parent chain.

T1: hepatitis A virus (HAV) full particle, genotype TZ84 (HAV IA genotype) (hepatitis A virus, genotype TZ84 (HAV …))
T1 chain 1: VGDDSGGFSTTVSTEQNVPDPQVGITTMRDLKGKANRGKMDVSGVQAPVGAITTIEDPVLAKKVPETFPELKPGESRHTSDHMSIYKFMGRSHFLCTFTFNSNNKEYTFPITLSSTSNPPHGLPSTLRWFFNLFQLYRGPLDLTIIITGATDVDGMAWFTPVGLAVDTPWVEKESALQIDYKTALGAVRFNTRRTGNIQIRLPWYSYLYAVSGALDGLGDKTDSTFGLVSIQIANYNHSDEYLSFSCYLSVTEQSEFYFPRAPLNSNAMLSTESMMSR
T1 chain 2: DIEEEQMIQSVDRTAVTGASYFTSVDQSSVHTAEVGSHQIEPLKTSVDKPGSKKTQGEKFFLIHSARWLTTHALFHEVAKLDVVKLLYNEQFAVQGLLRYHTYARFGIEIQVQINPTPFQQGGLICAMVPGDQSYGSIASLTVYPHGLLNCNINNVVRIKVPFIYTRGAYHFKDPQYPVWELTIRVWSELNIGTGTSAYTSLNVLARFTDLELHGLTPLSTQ
T1 chain 3: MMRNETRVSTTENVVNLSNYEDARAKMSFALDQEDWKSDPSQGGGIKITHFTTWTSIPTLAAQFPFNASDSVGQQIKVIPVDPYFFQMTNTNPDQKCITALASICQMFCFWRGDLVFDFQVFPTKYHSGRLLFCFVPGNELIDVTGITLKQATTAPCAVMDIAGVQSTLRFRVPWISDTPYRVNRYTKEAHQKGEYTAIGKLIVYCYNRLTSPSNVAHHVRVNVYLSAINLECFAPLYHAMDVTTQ

B1: R10 Fab (fragment of antigen binding of the neutralizing monoclonal antibody R10) (Fab, V domains shown)
VH: EVKLVESGGGSVKPGGSLKLSCAASGFSFSTYGMSWVRQTPEKRLEWVATISGGGGYTYYPDSVKGRFTISRDNARNILYLQMSSLRSGDTAMYYCARRVTTVAEYYFDYWGQGTTLTVSS
VL: DIVLTQSPAIMSASPGEKVTMTCSASSSVSYIHWYQQKSGTSPKRWIYDTSRLAFGVPGRFSGSGSGTSYSLTISSMEAEDAATYYCQQWSSNYTFGGGTNLEIK
B2: F4 Fab (fragment of antigen binding of the neutralizing monoclonal antibody F4) (Fab, V domains shown)
VH: EVKLVESGGGLVKPGGSLKLSCAASLFTHNNYGMSWVRQTPEKRLEWVATINSTASYTYYPDSVKGRFTISRDNAKNTLYLQMSSLRSGDTAIYYCARKNDTFSDYYFDYWGQGTTLTVSS
VL: DIVLTQSPAIMSASPGERVTMTCSAHVSTDYMHWYQQKSGTSPKRWIYDTSKLASTVPDRFSGSGSGTSYSLTISSMEAEDAATYYCQQWNNNAYTYGGGTKLEIK
B3: F9 Fab (fragment of antigen binding of the neutralizing monoclonal antibody F9) (Fab, V domains shown)
VH: EVKLVESGGGLVKPGGSLKLSCAASAFTITTYGMSWVRQTPEKRLEWVATITAGGSYTYYPDSVKGRFTISRDNAKNTLYLQMSSLRSGDTAMYYCARKVTSVAEYYFDYWGQGTTLTVSS
VL: DIVLTQSPAIMSASPGEKVTMTCSATSGLSYIHWYQQKSGTSPKRWIYDTSKLAFGAPARFSGSGSGTSYSLTISSMEAEDAATYYCQQWDVNPYTFGGGTKLEIK
B4: F7 Fab (fragment of antigen binding of the neutralizing monoclonal antibody F7) (Fab, V domains shown)
VH: EVKLVESGGGLVKPGGSLKLSCAASIHTFNCYGMSWVRQTPEKGLEWVATIDAASSYTYYPDSVKGRFTISRDNAKNTLYLQMSSLRSGDTAMYYCARRDNTTAQYYFDYWGQGTTLTVSS
VL: B3 VL with T26A, G28S, L29V, K52R, A57V, A59T, D91S, V92T
B5: F6 Fab (fragment of antigen binding of the neutralizing monoclonal antibody F6) (Fab, V domains shown)
VH: EVKLVESGGGLVKPGGSLKLSCAASMYNFQHYGMSWVRQTPEKRLEWVATIQTNATYTYYPDSVKGRFTISRDNARNILYLQMSSLRSGDTAMYYCARRDNIECHYYFDYWGQGTTLTVSS
VL: DIVLTQSPAIMSASPGERVTMTCSAHQYVSYMHWYQQKSGTSPKRWIYDTSRLADAIPQRFSGRGSGTSYSLTISSMEAEDAATYYCQQWQSNPYTFGGGTKLEIK

Assays:
[1] = biological target: T1, hepatitis A virus (HAV) full particle, …; experiment: SPR
[2] = biological target: T1, hepatitis A virus (HAV) full particle, …; experiment: SPR

Row | Binder | koff [1] [s⁻¹] | Kd [2] [nM]
1 | B1 | 0.000528 | 8.13
2 | B2 | 0.000252 | 5.14
3 | B3 | 0.000537 | 7.18
4 | B4 | 0.000743 | 7.1
5 | B5 | 0.000134 | 2.19
